For the experiment, the target named is eIF4E (mouse (endogenous in cerebellum)) (UniProt P63073). The experiment in a line: pull-down; m7GTP beads (30 ul) incubated with 500 ug mouse cerebellar lysate for 1 h at 4 C; lysis buffer 150 mM NaCl, 10 mM MgCl2, 30 mM tris pH 8.0, 1 mM DTT, 1.5% Triton X-100; washed three times in 100 mM KCl, 50 mM tris pH 7.4, 5 mM MgCl2, 0.5% Triton X-100; eIF4E and eIF4G blotted; eIF4G/eIF4E ratio normalized to the WT mean; CYFIP1 OE and WT mice.
UniProt P63073, sequence (P63073 whole entry): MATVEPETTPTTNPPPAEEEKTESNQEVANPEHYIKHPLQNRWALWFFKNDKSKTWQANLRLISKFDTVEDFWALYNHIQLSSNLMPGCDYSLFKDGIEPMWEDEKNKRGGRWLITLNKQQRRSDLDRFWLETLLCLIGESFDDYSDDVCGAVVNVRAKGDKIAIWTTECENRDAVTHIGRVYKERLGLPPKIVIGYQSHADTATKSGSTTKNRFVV

In the case of eIF4G (natural protein), the eIF4G/eIF4E binding ratio in CYFIP1 OE mice, normalized to WT mean (fold of WT mean) worked out at 1.68.
